Three molecules from patent publication US20180311371A1 (Hoffmann-La Roche, published 2018) can be followed below.

Test [1] addresses T1, minipig TPBG, full length, cell surface expressed on CHO-K1 cells (minipig).
T1 chain: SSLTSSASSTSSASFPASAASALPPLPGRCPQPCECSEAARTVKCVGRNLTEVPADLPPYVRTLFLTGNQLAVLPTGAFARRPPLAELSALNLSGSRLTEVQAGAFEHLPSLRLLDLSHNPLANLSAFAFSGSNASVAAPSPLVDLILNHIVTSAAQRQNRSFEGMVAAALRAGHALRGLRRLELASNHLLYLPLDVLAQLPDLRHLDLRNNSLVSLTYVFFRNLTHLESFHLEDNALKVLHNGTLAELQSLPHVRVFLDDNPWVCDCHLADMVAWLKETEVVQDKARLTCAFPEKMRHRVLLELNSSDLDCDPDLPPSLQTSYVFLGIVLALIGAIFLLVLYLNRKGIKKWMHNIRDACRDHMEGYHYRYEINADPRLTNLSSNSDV
The test is described as follows: cell-based or functional assay.

The target in test [2] is T2, human TPBG (trophoblast glycoprotein), full length, cell surface expressed (human, UniProt Q13641 32-420).
T2 sequence: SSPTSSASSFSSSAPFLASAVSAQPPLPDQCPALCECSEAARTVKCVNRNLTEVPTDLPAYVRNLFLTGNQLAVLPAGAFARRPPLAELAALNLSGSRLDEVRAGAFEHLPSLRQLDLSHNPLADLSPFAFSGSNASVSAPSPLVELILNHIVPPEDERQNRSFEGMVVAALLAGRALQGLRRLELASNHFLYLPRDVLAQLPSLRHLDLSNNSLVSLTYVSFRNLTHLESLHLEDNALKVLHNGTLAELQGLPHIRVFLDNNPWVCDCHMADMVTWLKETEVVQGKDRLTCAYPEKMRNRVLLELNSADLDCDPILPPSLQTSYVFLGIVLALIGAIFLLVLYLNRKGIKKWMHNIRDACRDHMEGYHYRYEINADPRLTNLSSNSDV
As to the kind of experiment: cell-based or functional assay.

Test [3] deals with T2, human TPBG (trophoblast glycoprotein), …. The test is described as follows: cell-based or functional assay. The source holds these as a separate data set.
For test [4], the target named is T1, minipig TPBG, full length, cell surface …. As to the kind of experiment: cell-based or functional assay.
Test [5] concerns the target T2, human TPBG (trophoblast glycoprotein), …. As to the kind of experiment: cell-based or functional assay. This is another data set of the same source.
Test [6] shares this target. The test is described as follows: cell-based or functional assay. This is another data set of the same source.
Test [7] shares this target. The test is described as follows: cell-based or functional assay. This is another data set of the same source.
Test [8] has as its target T3, huTPBG (recombinant human TPBG immobilised on the Biacore chip) (human, UniProt Q13641 32-355, limits assumed).
T3 construct: also called human TPBG antigen
T3 sequence: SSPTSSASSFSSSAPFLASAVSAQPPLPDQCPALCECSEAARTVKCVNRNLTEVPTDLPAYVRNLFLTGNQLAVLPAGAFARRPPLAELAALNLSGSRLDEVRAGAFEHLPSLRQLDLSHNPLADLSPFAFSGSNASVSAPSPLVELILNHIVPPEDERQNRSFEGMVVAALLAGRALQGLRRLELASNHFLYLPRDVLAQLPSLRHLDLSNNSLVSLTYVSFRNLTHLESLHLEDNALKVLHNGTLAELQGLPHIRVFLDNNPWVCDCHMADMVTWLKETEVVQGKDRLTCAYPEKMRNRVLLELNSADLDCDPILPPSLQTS
As to the kind of experiment: SPR Biacore T200; huTPBG amine-coupled, Fab injected.

Test [9] deals with T2, human TPBG (trophoblast glycoprotein), …. As to the kind of experiment: flow cytometry on SW620 clone 4 cells; ratio of MFI; replicate 1. For orientation: Flow cytometry measures light scatter and fluorescence of single cells or particles in a stream.
Test [10] has the same target. As to the kind of experiment: flow cytometry on SW620 clone 4 cells; ratio of MFI; replicate 2.
For test [11], the target named is T4, recombinant extracellular domain of minipig TPBG (Biacore analyte) (minipig).
T4 chain: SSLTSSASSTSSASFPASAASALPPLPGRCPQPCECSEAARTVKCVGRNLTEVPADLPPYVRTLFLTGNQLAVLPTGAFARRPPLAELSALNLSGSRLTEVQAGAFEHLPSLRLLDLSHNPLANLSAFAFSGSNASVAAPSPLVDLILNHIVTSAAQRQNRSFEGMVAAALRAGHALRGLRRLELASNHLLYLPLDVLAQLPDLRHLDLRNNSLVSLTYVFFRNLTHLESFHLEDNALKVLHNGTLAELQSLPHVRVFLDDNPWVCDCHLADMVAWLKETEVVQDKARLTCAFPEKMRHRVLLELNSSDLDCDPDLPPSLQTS
As to the kind of experiment: SPR (Biacore T200): Fab captured on anti-huFab antibody, minipig TPBG injected for 120 s at 4.9-400 nM, dissociation 660 s. (In general: SPR reads the build-up and loss of mass on a sensor chip optically.)

Test [12] concerns the target T1, minipig TPBG, full length, cell surface …. The test is described as follows: flow cytometry on CHO cells stably expressing minipig TPBG; Fab dilution series 0.01-20 µg/ml, PE-labelled anti-kappa secondary antibody.
Test [13] concerns the target T5, murine TPBG extracellular domain, huIgG1-Fc-His6 (murine).
T5 construct: also called Fc-TPBG (mo)
The test is described as follows: ELISA; Fc-TPBG coated; (-) = no binding.

For test [14], the target named is T6, minipig TPBG extracellular domain, huIgG1-Fc-His (minipig).
T6 construct: also called Fc-TPBG (mp)
As to the kind of experiment: ELISA; Fc-TPBG coated; mAb titrated from 1 µg/ml. (In an ELISA, binding on a coated surface is turned into a signal by an enzyme label.)

In test [15] the target is T7, human TPBG extracellular domain, huIgG1-Fc-His6 (human).
T7 construct: also called Fc-TPBG (hu)
As to the kind of experiment: ELISA; Fc-TPBG coated; mAb titrated from 1 µg/ml.

Test [16] has as its target T8, rat TPBG extracellular domain, huIgG1-Fc-His6 (rat).
T8 construct: also called Fc-TPBG (rt)
The test is described as follows: ELISA; Fc-TPBG coated; mAb titrated from 1 µg/ml.

Test [17] addresses T9, cynomolgus TPBG extracellular domain, huIgG1-Fc-His6 (cynomolgus).
T9 construct: also called Fc-TPBG (cy)
The test is described as follows: ELISA; Fc-TPBG coated; (-) = no binding.

Test [18] has as its target T8, rat TPBG extracellular domain, …. The test is described as follows: ELISA; Fc-TPBG coated; (-) = no binding.

T5 sequence (chain, as listed by the source limits assumed): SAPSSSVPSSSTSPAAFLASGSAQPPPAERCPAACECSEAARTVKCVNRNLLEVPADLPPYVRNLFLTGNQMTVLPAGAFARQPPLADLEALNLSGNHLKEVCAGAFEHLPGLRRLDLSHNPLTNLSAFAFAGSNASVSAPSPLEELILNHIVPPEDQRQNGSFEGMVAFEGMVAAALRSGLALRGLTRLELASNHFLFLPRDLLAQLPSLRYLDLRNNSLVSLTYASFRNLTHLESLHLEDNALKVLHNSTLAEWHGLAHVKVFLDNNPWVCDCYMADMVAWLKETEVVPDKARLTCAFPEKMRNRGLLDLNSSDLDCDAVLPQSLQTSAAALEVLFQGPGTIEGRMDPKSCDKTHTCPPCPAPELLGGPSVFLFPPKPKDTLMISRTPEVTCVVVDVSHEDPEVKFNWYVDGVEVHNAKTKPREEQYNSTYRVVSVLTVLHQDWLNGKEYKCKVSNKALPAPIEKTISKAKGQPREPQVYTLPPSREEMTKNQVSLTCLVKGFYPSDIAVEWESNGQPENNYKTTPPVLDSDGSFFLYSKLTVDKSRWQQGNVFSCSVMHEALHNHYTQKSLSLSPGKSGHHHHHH
T8 sequence (chain, as listed by the source limits assumed): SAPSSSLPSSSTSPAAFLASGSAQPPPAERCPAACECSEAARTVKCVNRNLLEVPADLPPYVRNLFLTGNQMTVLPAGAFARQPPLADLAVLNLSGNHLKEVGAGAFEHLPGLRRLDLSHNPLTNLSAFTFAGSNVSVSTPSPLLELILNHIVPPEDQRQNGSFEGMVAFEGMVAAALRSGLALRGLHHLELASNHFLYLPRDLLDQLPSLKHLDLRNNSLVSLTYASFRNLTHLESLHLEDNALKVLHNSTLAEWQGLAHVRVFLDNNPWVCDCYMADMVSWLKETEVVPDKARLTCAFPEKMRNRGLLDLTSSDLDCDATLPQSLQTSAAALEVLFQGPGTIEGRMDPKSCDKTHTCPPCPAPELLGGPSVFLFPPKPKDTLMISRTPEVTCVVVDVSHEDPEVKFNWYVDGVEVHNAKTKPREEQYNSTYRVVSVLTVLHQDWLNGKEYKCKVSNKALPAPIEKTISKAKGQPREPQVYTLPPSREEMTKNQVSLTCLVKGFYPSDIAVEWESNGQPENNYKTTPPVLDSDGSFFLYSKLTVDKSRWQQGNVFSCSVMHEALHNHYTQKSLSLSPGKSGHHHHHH
T9 sequence (chain, as listed by the source limits assumed): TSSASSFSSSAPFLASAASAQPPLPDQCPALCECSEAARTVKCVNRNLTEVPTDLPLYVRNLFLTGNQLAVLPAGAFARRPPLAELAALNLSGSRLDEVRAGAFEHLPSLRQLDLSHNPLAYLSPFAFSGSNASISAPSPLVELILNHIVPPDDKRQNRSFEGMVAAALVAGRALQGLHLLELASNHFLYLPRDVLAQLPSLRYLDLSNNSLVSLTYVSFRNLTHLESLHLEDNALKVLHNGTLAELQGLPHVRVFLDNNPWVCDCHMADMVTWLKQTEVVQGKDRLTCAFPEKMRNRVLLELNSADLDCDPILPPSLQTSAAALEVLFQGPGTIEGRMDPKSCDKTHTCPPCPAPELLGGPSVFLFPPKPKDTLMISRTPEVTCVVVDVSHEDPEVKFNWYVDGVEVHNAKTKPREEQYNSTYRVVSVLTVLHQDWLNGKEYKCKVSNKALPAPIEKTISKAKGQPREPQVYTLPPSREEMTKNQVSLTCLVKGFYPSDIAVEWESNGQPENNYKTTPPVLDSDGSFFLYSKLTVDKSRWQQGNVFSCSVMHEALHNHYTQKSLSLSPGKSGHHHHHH

B1: prior art anti-TPBG antibody H8, Fab fragment (Fab, V domains shown)
VH: EVQLQQSGPDLVKPGASVKISCKASGYSFTGYYMHWVKQSHGKSLEWIGRINPNNGVTLYNQKFKDKAILTVDKSSTTAYMELRSLTSEDSAVYYCARSTMITNYVMDYWGQVTSVTVSS
VL: SIVMTQTPTFLLVSAGDRVTITCKASQSVSNDVAWYQQKPGQSPTLLISYTSSRYAGVPDRFIGSGYGTDFTFTISTLQAEDLAVYFCQQDYNSPPTFGGGTKLEIKR
notes: also called Fab(H8); Fab1
In the case of B1, the “fold lower potency on minipig TPBG cells than on human TPBG cells, sandwich construct” value in test [1] was roughly 100 fold. In addition, in test [2], the “internalization after 1.0 h, MCF7 cells” value stood at 61% and the “internalization after 2.0 h, MCF7 cells” value is 79%. Also, in [3], the “EC50 cytotoxicity, Fab + anti-kappa-Fab-PE, CHO-K1/human TPBG, replicate 1” value is 410 pM and the “EC50 cytotoxicity, Fab + anti-kappa-Fab-PE, CHO-K1/human TPBG, replicate 2” value was 520 pM. In [4], the “EC50 cytotoxicity, Fab + anti-kappa-Fab-PE, CHO-K1/minipig TPBG, replicate 1” value was determined as 48000 pM and the “EC50 cytotoxicity, Fab + anti-kappa-Fab-PE, CHO-K1/minipig TPBG, replicate 2” value worked out at 45900 pM. The “EC50 cytotoxicity, Fab-PE sandwich construct, MCF7” value in [5] is 1250 pM. In test [6], the “EC50 cytotoxicity, Fab-PE sandwich construct, MCF7 (comparison with A1-A3)” value stood at 1850 pM. In addition, in [7], the “EC50 cytotoxicity, Fab-PE sandwich construct, H1975, replicate 1” value came out at 698 pM; the “EC50 cytotoxicity, Fab-PE sandwich construct, H1975, replicate 2” value is 451 pM; the “EC50 cytotoxicity, Fab-PE sandwich construct, H1975, replicate 3” value was 656 pM. Besides, in test [8], the Kd was determined as 1.58 pM, the koff came to 2.17e-07 s⁻¹ and the kon stood at 137000 M⁻¹ s⁻¹. For the same molecule, the “Fold change pH 7.2 vs pH 5.5” value in test [9] was 4.2 fold. In addition, in test [10], the “Fold change pH 7.2 vs pH 5.5” value came out at 6.8 fold. Besides, the binding result in test [11] is reported as “no binding”. For the same molecule, the binding result in test [12] is on record as “no binding (tested: 20 µg/ml)”.

B2: anti-TPBG antibody 091 (mAb) (antibody, V domains shown)
VH: EVHLLESGGGLVHPGGSLRLSCAASGFTFRSDAMHWVRQAPGKGLEWVSGVSGSGGSPYYADSVKGRFTISRDDSKTTLYLQMNSLRAEDTAVYYCATGGSIAGSYYYYPMDVWGQGTTVTVSS
VL: DIQMTQSPSSLSASVGDRVTITCQASQDISNYLNWYQQKPGKAPKLLIYAASTLQIGVPSRFSGSGSGTDFTFTISSLQPEDFATYYCQQANSFPLTFGGGTKVEIK
For B2, the binding result in [13] is “no binding (tested: titrated from 1 µg/ml)”; in [14], “binds”; in test [15] it was “binds”; in test [16] it was “binds”.

B3: anti-TPBG antibody 097 (mAb) (antibody, V domains shown)
VH: EVQLLESGGGLAQPGGSLRLSCAASGFTFNNDAMTWVRQAPGKGLEWVSAISGSGGSTYYADSVKGRFTISRDNSKNTLYLQMNSLRAEDTAVYYCAKGGSWGDWYYYFYPMDVWGQGTTVTVSS
VL: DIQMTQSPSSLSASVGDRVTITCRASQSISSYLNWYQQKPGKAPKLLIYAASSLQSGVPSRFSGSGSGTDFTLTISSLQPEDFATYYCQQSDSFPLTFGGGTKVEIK
B3: the binding result in test [13] was “no binding (tested: titrated from 1 µg/ml)”; in [17], “no binding (tested: titrated from 1 µg/ml)”; in [18], “no binding (tested: titrated from 1 µg/ml)”; in [14] it was “binds”; in [15], “binds”.

What is called Kd is the equilibrium constant for the complex coming apart. In general, koff refers to a measure of how fast the partners let go of each other. What is called kon is the second-order rate constant of association.
